# How the values were obtained:
# [1] = test system: U87 human glioblastoma cells; assay type: cell-based; conditions: MTT test, 0.05–50 µM, treated 24 h (method: overnight), washed, further 48 h (method: 72 h) at 37 °C, two independent experiments with four parallel measurements
# Protocol: The in vitro cytostatic effect of the synthesized peptide (1) and daunomycin-peptide conjugates (2–8) was investigated on U87 human glioblastoma cells. The cells were treated with the peptide and conjugates at different concentrations (0.05–50 μM) for 24 h, and after a washing step, the cells were incubated for another […] at 37 °C. The cytostatic effect of the compounds was determined using the MTT test.
# U87 human glioblastoma cell line was cultured in DMEM supplemented with 10% FBS, 2 mM L-glutamine, penicillin–streptomycin antibiotic mixture (50 IU/mL and 50 μg/mL, respectively), 1 mM sodium pyruvate, and 1% non-essential amino acid mixture. The cell culture was maintained at 37 °C in a humidified atmosphere with 5% CO2. The U87 cell line was a generous gift of Dr. József Tóvári (Department of Experimental Pharmacology, National Institute of Oncology, Budapest, Hungary).
# For determining the cytostatic effect of the conjugates, U87 cells were grown to confluency and then divided into 96-well tissue culture plates with an initial cell number of 5.0 × 10^3 cells/well. After 24 h incubation at 37 °C, the cells were treated with the compounds overnight in the concentration range of 0.05–50 μM in 200 μL final volume containing 1.0 v/v% DMSO, whereas control cells were treated only with serum-free medium or with 1.0 v/v% DMSO at the same conditions. After the incubation, cells were washed twice with serum-free medium, then the cells were cultured for an additional 72 h in 10% serum-containing medium at 37 °C. Following that, MTT solution (at c = 0.37 mg/mL final concentration) was added to each well. The respiratory chain [32] and other electron transport systems reduced MTT and thereby formed non-water-soluble violet formazan crystals within the cells. The amount of these crystals can be determined by spectrophotometry and serves as an estimate for the number of mitochondria in addition to the number of living cells in the well [35]. After 3 h of incubation with MTT, the cells were centrifuged for 5 min at 2000 rpm and the supernatant was removed. The obtained formazan crystals were dissolved in DMSO (100 µL), and the optical density (OD) of the samples was measured at λ = 540 nm and 620 nm, respectively, using ELISA Reader (iEMS Reader, Labsystems, Finland). The OD620 values were subtracted from the OD540 values. The percent of cytostasis was calculated with the following equation:(1) Cytostatic effect (%)=1−ODtreated/ODcontrol×100 where the ODtreated and ODcontrol values correspond to the optical densities of the treated and the control wells, respectively. In each case, two independent experiments were carried out with four parallel measurements. Cytostasis was plotted as a function of concentration, and the half-maximal inhibitory concentration was calculated based on a sigmoid curve fitted on the data points using Microcal™ Origin 2018 software. IC50 represents the concentration of a compound that is required for 50% inhibition, expressed in micromolar units.
# [2] = test system: U87 human glioblastoma cells; experiment: In vitro cellular uptake by flow cytometry; assay type: cell-based; conditions: 50 µM
# Protocol: The in vitro cytostatic effect of any peptide–drug conjugate is influenced by many factors. One of the main effects is the cellular uptake of the conjugates by cells. Therefore, we compared the cellular uptake of the different conjugates on U87 glioblastoma cells. The cells were incubated with the conjugates (2, 10, and 50 µM) for 1 h. Then, after a washing step, the cells were treated with trypsin to remove the cell surface-bound conjugates and other cell surface structures that enable non-specific binding, so only the quantity of the conjugates actually entering the cells was detected by flow cytometry. […] The cellular uptake of the conjugates was concentration-dependent. […]
# U87 cells were plated into 24-well tissue culturing plates with the initial cell number of 10^5 cells/well 24 h before the experiment. […] Data were recorded for 5000–10,000 cells at λex = 488 nm. The fluorescence mean was calculated. Daunomycin-positive cells were also gated from the living cell population, and the percentage of daunomycin-containing cells was calculated. The gating was determined from the untreated control cell count/fluorescence intensity histogram by adjusting the lowest fluorescence intensity value of the gated cells to the highest fluorescence intensity value of the live population of untreated control cells. Cells showing fluorescence intensities above this were considered as Dau-positive. […]
# [3] = Degradation in rat liver lysosomal homogenate followed by HPLC-MS; assay type: in vitro ADME; conditions: pH 5.03, 37 °C
# Protocol: The conjugates were treated with lysosomal homogenate for 5 min, 1 h, 6 h, 24 h, and 72 h, and the degradation was followed by HPLC-MS. Control studies investigating conjugates in buffer (without lysosomal homogenate) were also performed, and for these, all conjugates were stable. […] At 6 h, it was the main drug-containing metabolite, and at 72 h, only this Dau-containing fragment could be detected. This time-dependent pattern was also observed in the case of conjugate 2, where Dau was attached to the side chain of Lys in position 15, and the formed smallest metabolite was H-Lys(Dau=Aoa)-OH. […] It is likely that, in this case, a large steric hindrance occurred, and the enzymes were not able to access the peptide bonds around ^10Lys. This observation might explain the discrepancy between the efficient cellular uptake and the lower anticancer activity of this conjugate.
# A stock solution with a concentration of 2.5 μg/μL was prepared from the conjugates in distilled water, and this was diluted 100× with 0.2 M sodium acetate buffer (pH 5.03). The rat liver lysosomal homogenate (16.6 μg/μL) was diluted 20× with the same buffer, and then the two solutions were mixed in a 1:1 (protein:peptide, m/m) ratio. In each case, control measurements were also performed, in which buffer was added to the conjugates instead of the lysosomal homogenate. The solutions were stirred at 600 rpm at 37 °C in a thermostat (ThermoMixer, Eppendorf AG, Hamburg, Germany), and after 5 min, 1 h, 6 h, 24 h, and 72 h, 50 μL samples were taken. Each reaction was quenched with 5 μL formic acid and the samples were stored frozen until analysis.
# The HPLC-MS analysis of the samples was performed with a Dionex 3000 HPLC-Q Exactive Focus hybrid quadrupole-orbitrap mass spectrometer (Thermo Fisher Scientific, Bremen, Germany). For separation, a Supelco Ascentis C18 column (3 μm, 100 Å, 150 × 2.1 mm; Merck, Darmstadt, Germany) and gradient elution (0 min 2% B, 1 min 2% B, 17 min 90% B; A eluent: 0.1% formic acid/distilled water, eluent B: 0.1% formic acid/acetonitrile + distilled water (80:20, v/v%), flow rate 0.2 mL/min, 40 °C) was used, and high-resolution mass spectra were recorded in the range of 200–1800 m/z. The data were analyzed using the Xcalibur program (Thermo Fisher Scientific).
SMILES,IC50 [1] [µM],toxicity observed during the cellular uptake measurement (live cells in % of untreated control) [2],release of Dau=Aoa-Gly-OH (in words) [3]
"COc1cccc2c1C(=O)c1c(O)c3c(c(O)c1C2=O)C[C@@](O)(C(C)=NOCC(=O)NCCCC[C@H](NC(=O)CNC(=O)[C@H](CCCNC(=N)N)NC(=O)[C@H](CO)NC(=O)CNC(=O)CNC(=O)[C@H](Cc1ccc(O)cc1)NC(=O)[C@H](Cc1ccccc1)NC(=O)[C@H](Cc1ccccc1)NC(=O)[C@@H](NC(=O)CON=C(C)[C@]1(O)Cc2c(O)c4c(c(O)c2[C@@H](O[C@H]2C[C@H](N)[C@H](O)[C@H](C)O2)C1)C(=O)c1c(OC)cccc1C4=O)[C@@H](C)O)C(=O)N[C@@H](CCCNC(=N)N)C(=O)N[C@@H](CC(N)=O)C(=O)N[C@@H](CC(N)=O)C(=O)N[C@@H](Cc1ccccc1)C(=O)N[C@@H](CCCCN)C(=O)N[C@H](C(=O)N[C@@H](CCC(=O)O)C(=O)N[C@@H](CCC(=O)O)C(=O)N[C@@H](Cc1ccc(O)cc1)C(=O)O)[C@@H](C)O)C[C@@H]3O[C@H]1C[C@H](N)[C@H](O)[C@H](C)O1 [compound 7, Dau=Aoa-TFFYGGSRGK(Dau=Aoa)RNNFKTEEY-OH]",7.8 ± 6.3,slight toxicity,
"COc1cccc2c1C(=O)c1c(O)c3c(c(O)c1C2=O)C[C@@](O)(C(C)=NOCC(=O)NCC(=O)N[C@@H](Cc1ccccc1)C(=O)N[C@@H](CC(C)C)C(=O)NCC(=O)NCCCC[C@H](NC(=O)CNC(=O)[C@H](CCCNC(=N)N)NC(=O)[C@H](CO)NC(=O)CNC(=O)CNC(=O)[C@H](Cc1ccc(O)cc1)NC(=O)[C@H](Cc1ccccc1)NC(=O)[C@H](Cc1ccccc1)NC(=O)[C@@H](N)[C@@H](C)O)C(=O)N[C@@H](CCCNC(=N)N)C(=O)N[C@@H](CC(N)=O)C(=O)N[C@@H](CC(N)=O)C(=O)N[C@@H](Cc1ccccc1)C(=O)N[C@@H](CCCCN)C(=O)N[C@H](C(=O)N[C@@H](CCC(=O)O)C(=O)N[C@@H](CCC(=O)O)C(=O)N[C@@H](Cc1ccc(O)cc1)C(=O)O)[C@@H](C)O)C[C@@H]3O[C@H]1C[C@H](N)[C@H](O)[C@H](C)O1 [compound 9, H-TFFYGGSRGK(Dau=Aoa-GFLG)RNNFKTEEY-OH]",16.9 ± 5.6,slight toxicity,particularly slow
